T1: Nup88^517-742 (tags removed, from the co-purified complexes) (rat, UniProt O08658 517-742)
T1 sequence: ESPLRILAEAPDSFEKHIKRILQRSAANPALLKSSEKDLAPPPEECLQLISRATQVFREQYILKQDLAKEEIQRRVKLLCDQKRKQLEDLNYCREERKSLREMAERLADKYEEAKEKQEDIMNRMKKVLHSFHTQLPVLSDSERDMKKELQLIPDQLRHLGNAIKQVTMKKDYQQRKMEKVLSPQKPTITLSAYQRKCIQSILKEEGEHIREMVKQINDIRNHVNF


Key:
[1] = molecular target: T1, Nup88^517-742 (tags removed, from the …); assay: SEC-MALS + other: densitometry of SDS-PAGE bands
SEC-MALS = molecular target: the molecule itself; assay: SEC-MALS

stoichiometry N [1] | Binder | stoichiometry N (SEC-MALS)
2 Nup62 per Nup88 | Nup62^322-525 (tags removed, from the co-purified complexes) (domain or fragment) AVGTTTGPAMTYAQLESLINKWSLELEDQERHFLQQATQVNAWDRTLIENGEKITSLHREVEKVKLDQKRLDQELDFILSQQKELEDLLSPLEESVKEQSGTIYLQHADEEREKTYKLAENIDAQLKRMAQDLKDIIEHLNMAGGPADTSDPLQQICKILNAHMDSLQWVDQSSALLQRRVEEASRVCESRRKEQERSLRIAFD | 
 | His6-tagged Nup88^517-742 (domain or fragment) ESPLRILAEAPDSFEKHIKRILQRSAANPALLKSSEKDLAPPPEECLQLISRATQVFREQYILKQDLAKEEIQRRVKLLCDQKRKQLEDLNYCREERKSLREMAERLADKYEEAKEKQEDIMNRMKKVLHSFHTQLPVLSDSERDMKKELQLIPDQLRHLGNAIKQVTMKKDYQQRKMEKVLSPQKPTITLSAYQRKCIQSILKEEGEHIREMVKQINDIRNHVNF | 2

From article PMC9727814 (Molecular Biology of the Cell, 2022)
